The values below come from patent publication US20240092922A1 (EUCURE BEIJING BIOPHARMA, published 2024).

Numbering of substitutions follows the chain as printed.

B1: 55-8F6-mHvKv-IgG2 (antibody, V domains shown)
VH: QVQLQQPGAELVRPGASVKLSCKASGYIFTSYWINWVKQRPGQGLEWIGNIYPSDSYTNYNQKFKDKATLTVDKSSSTAYMQLSSPTSEDSAVYYCTRFHYGSSPFDNWGQGTTLTVSS
VL: DIQMTQSTSSLSASLGDRVTISCRASQDISHYLNWYQQKPDGTVKLLIYYTSRLHSGVPSRFSGSGSGTDYSLTISNLEQEDFATYFCQQGHTLPRTFGGGTKLEIK
B2: 56-2A6-mHvKv-IgG2 (antibody, V domains shown)
VH: QIQLVQSGPELKKPGETVKISCKASGYTFTNYGMNWVKQAPGKGFKWMGWINTYTGEPTYADDFKGRFAFSLEISASTAYLQINNLKNEDTATYFCARRDYLGAMDYWGQGTSVTVSS
VL: ENVLTQSPAIMSASPGEKVTMTCRASSSVSSSYLHWYQQKSGASPKLWIYSTSNLASGVPARFSGSGSGTSYSLTISSVEAEDAATYYCQQYSAYLYTFGGGTKLEIK
B3: 45-7G9-mHvKv-IgG2 (antibody, V domains shown)
VH: QVQLQQPGSALVRPGASVKLSCKASGYTFSNYWIHWVKQRHGQGLEWIGNIYPASDYTNYDEKFKNKGTLTVDTSSSTAYMHLSSLTSEDSAVYYCSRGYFGSLDYWGQGTSVTVSA
VL: DILLTQSPAILSVNPGERVSFSCRASQPIGTGIHWYQQRTNGSPRLLIKSASESISGIPSRFSGSGSGTDFTLTINNVESDDVGDYYCQQSYSWPTTFGGGTKLKIN
B4: 30-5F9-mHvKv-IgG4 (antibody, V domains shown)
VH: QVQLKESGPGLVAPSQSLSITCTVSGFSLTTYDISWVRQPPGKGLEWLGVIWTGGGTNYNSSFMSRLSISKDNSKNQVFLKMNSLQVDDTAIYYCERVDYWGQGTTLTVSS
VL: DVVMTQTPLSLPVSLGDQASISCRSSQSLVHSNGNTYLHWYLQKPGQSPKLLIYKVSNRFSGVPDRFSGSGSGTAFTFKISRVEAEDLGVYFCSQNTHVPWTFGGGTKLEIK
B5: 54-8B11-mHvKv-IgG2 (antibody, V domains shown)
VH: QIQLVQSGPELKKPGETVKISCKASKFTFTNYGMNWVKQAPGKALKWMGWINTYTGEPTYADDFKGRFDFSLETSATTAYLQINNLKNEDTATYFCARREYYPWVFVYWGQGTLVTVSA
VL: ENVLTQSPAIMSASPGEKVTMTCSASSSVSYMHWYQQKSSTSPKLWIYDTSKLASGVPGRFSGSGSGNSYSLTISSMEAEDVATYYCFQGSGYPLTFGGGTKLEIK
B6: 45-4B9-mHvKv-IgG2 (antibody, V domains shown)
VH: EVQLQQSGPELVKPGASVKMSCKASGYTFTTYVMYWVKQRPGQGLEWIGYINPYNDDIRYNEKFKGKATLTSDRSSSTAYMELSSLTSEDSAVYLCARQGGDYWGQGTILTVSS
VL: DVQITQSPSYLAASPGETITVNCRASKNINKYLAWYQEKPGKTNKLLIYSGSTLQSGIPSRFSGSGSGTDFTLTISSLEPEDFAVYHCQQYNEYPLTFGAGTKLEMK
B7: 29-6A5-mHvKv-IgG2 (antibody, V domains shown)
VH: QVQLQQPGAELVRPGASVKLSCKASGYTFSSYWINWVKQRPGQGLEWIGNIYPSDSYTNYNQKFKDKATLTVDKSSSTAYMQLSSPTSDDSAVYYCTRTWEFYYDSVFDYWGQGTTLTVSS
VL: DIKMTQSPSSMYASLGERVTITCKASQDINSYLSWFQQKPGKSPKTLIYRANRLVDGVPSRFSGSGSGQDYSLTISSLEYEDMGIYYCLQYDELPPTFGGGTKLEIK
B8: 69-3C2-mHvKv-IgG2 (antibody, V domains shown)
VH: DVQLVESGGGLVQPGGSRKLSCAASGFSFSSFGMHWMRQAPEKGLEWVAYISSGSSAIYYADTVKGRFTISRDNPKNTLFLQMTSLRSEDTAMYYCARDWVDYWGQGTTLTVSS
VL: DIQMTQSPASLSVSVGETVTITCRASENIYSNLVWYQQKQGKSPQLLVYTATKLTNGVPSRFSGSGSGTQYSLKINSLQSEDFGTYYCQHFWDTPYTFGGGTKLEMK
B9: 16-1C4-mHvKv-IgG4 (antibody, V domains shown)
VH: QGQMQQSGAELVKPGASVKLSCKTSGFTFSSSYINWLKQKPGQSLEWIAWIFAGTGGTYYNQKFTGKAQLTVDTSSGTAYMQFSSLTTEDSAIYYCARHSPRATLFDFWGQGTTLTVSS
VL: QIVLSQSPAILSASPGEKVTMTCRASSSVNHMHWYQQRTGFSPKAWIYATSNLASGVPARFSGSGSGTSYSLTISRVEAEDAATYYCQQWSSNPYTFGGGTKLEIK
B10: 61-6A7-mHvKv-IgG2 (antibody, V domains shown)
VH: EVQLQQSGAELVRPGALVKLSCKASGFNIKDYYMHWVKRRPEQGLEWIGWIDPENGNTIYDPKFQDKASITADTSSNTAYLQLSSLTSEDTAVYYCAEGLPWYFDYWGQGTTLTVSS
VL: QIILTQSPALMSASPGEKVTMTCSASSSVSDMNWYQQKPRSSPTPWIYLTSNLSSGVPDRFSGSGSGTSYSLTISSMEAEDAATYYCQQWSGNPLTFGAGTRLELK
B11: 45-7E9-mHvKv-IgG2 (antibody, V domains shown)
VH: QVQLKQSGPGLVQPSQSLSITCTVSGFSLTTYGVHWVRQPPGKGLEWLGVIWSDGNTDYNDAFISRLSITKDNSTSQVFFKMNGLQADDTAIYYCARNSITSVSFDCWGQGTTLTVSS
VL: DIVMTQSQKFMSTSVGDRVSVTCKASQNVGTTVAWYQQRPGQSPKALICSASYRYSGVPDRFTGSGSGTDFTLTISNVQSEDLAEYFCQQYNSYPLTFGSGTKLEIK
B12: 1C4-H2K3-IgG4 (antibody, V domains shown)
VH: QVQMVQSGAEVKKPGASVKLSCKASGFTFSSSYINWLRQAPGQSLEWIGWIFAGTGGTYYNQKFTGRVQITRDTSASTAYMELSSLRSEDTAIYYCARHSPRATLFDFWGQGTTLTVSS
VL: EIVLTQSPATLSLSPGERATMSCRASSSVNHMHWYQQKPGFSPRAWIYATSNLASGIPARFSGSGSGTSFTLTISSLEPEDFATYYCQQWSSNPYTFGGGTKLEIK
notes: humanized
B13: 1C4-H1K1-IgG4 (antibody, V domains shown)
VH: B12 VH with S44R, I48M, Q69T
VL: B12 VL with M21L, F41Q, S42A, W46L, T84V
notes: humanized; also called 1C4-IgG4-H1K1
B14: 70-6F10-mHvKv-IgG2 (antibody, V domains shown)
VH: QVQLQQSGPELVKPGASVKISCKASGYAFNNSWMNWVKQRPGQGLEWIGRIYPGDGDTDYNGKFKGKATLTADKSSSTAYMQLSSLTSVDSAVYFCARLDGNYYYWYFDVWGAGTTVTVSS
VL: not shown
B15: 45-2B3-mHvKv-IgG2 (antibody, V domains shown)
VH: QVQLQQSGPELVKPGASVKISCKTSGYAFSTSWMNWVKQRPGQGLEWIGRIYPGDGDTDYNGRFKGKATLTADKSSSTAYLQLSSLTSVDSAVYFCARLDGYYEVFYFDYWGQGTTLTVSS
VL: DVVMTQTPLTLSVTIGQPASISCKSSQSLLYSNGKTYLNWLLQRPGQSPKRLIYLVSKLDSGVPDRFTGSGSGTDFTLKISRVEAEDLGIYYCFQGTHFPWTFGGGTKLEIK
B16: 59-5E4-mHvKv-IgG2 (antibody, V domains shown)
VH: QVQLQQPGAELVRPGASVKLSCKASGYTFTTYWINWVRQRPGQGLEWIGNIYPSDSYTNYNQKFKDKASLTVDKSSNTAYMQLSSPTSEDSAVYYCAREAGDGTHYYAIDYWGQGTSVTVSS
VL: NIVMTQSPKSMSMSVGERVTLSCKASENVGTYVSWYQQKPEQSPKLLIYGASNRYPGVPDRFTGSGSATDFTLTISSLQAEDLADYHCGQGYSYLRTFGGGTNLEIK
B17: 45-8E2-mHvKv-IgG2 (antibody, V domains shown)
VH: EVKLLESGGGLVQPGGSLKLSCAASGFDFSRYWMSWVRQAPGKGLEWIGEIHPDSSAINYTPSLKDKFIISRDNAKNTLYLQMSKVRSEDTALYYCARSYYGRVFDYWGQGTTLTVSS
VL: DIVMTQSPATLSVTPGDRVSLSCRASQSISDYLHWYQQKSHESPRLLIKYASQSISGIPPRFSGSGSGSDFTLSINSVEPEDVGMYYCQDGHSFPPTFGAGTKLELK
B18: 45-8E11-mHvKv-IgG2 (antibody, V domains shown)
VH: EVQLQQSGTVLARPGASVKMSCKASGYSFTSNWMHWVKQRPGQGLEWIGVIYPGNSDTSYNQKFKGKAKLTAVTSASTAYMELSSLTNEDSAVYYCTRGITTAPEYWGQGTTLTVSS
VL: NIVMTQSPKSMSMSVGERVTLSCKASENVGIYVSWYQQKPEQSPKLLIYGASNRYTGVPDRFTGSGSATDFTLTISSVQPEDLADYHCGHTYNYPFTFGSGTKLEIK
B19: 45-8F1-mHvKv-IgG2 (antibody, V domains shown)
VH: B18 VH with N32Y, E82D, E105D
VL: B18 VL with Y32H, N53S, R54G, T56N, H90Q, N93S
B20: 70-3F9-mHvKv-IgG2 (antibody, V domains shown)
VH: QVQLQQPGAELVRPGASVKLSCKASGYTFTSYWINWVKQRPGQGLEWIGNIFPSDSYTNYNQKFKDRAKLTVDKSSSTAYMQLSSPTSEDSAVYYCTRFGSSGYPDYYTMEYWGQGTSVTVSS
VL: DIQMTQSPASLSASVGETVTITCRASGNIDNYLAWYQQKQGKSPQLLVYNAKTLAEGVPSRFSGSGSGTEYSLKINSLQPEDFGSYHCQQYWTIPYTFGGGTKLEIK
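Note: dissociation phase followed for 300 s, Kd derived as koff divided by kon from the kinetic fit.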

In the test the target is T1, Histidine-tagged human 4-1BB protein (h4-1BB-His) (human, UniProt Q07011 24-186).
T1 construct: not shown: histidine tag
In words: SPR (Biacore T200), antibody on Protein A chip, h4-1BB-His injected. (In SPR one partner is held on a chip, and binding of the other changes the refractive index at the surface.)
B1: the dissociation constant (Kd) worked out at 2.18 nM, the koff turned out to be 0.00341 s⁻¹ and the kon came to 1.57e+06 M⁻¹ s⁻¹.

The molecule B2 gave a dissociation constant (Kd) of 14 nM, an off-rate (koff) of 0.00141 s⁻¹ and a kon of 101000 M⁻¹ s⁻¹.

On to B3, for which the affinity, expressed as Kd, was 23.1 nM; the koff is 0.0041 s⁻¹; the kon was determined as 177000 M⁻¹ s⁻¹.

For the molecule B4, binding was put at a Kd of 9.91 nM, the koff turned out to be 0.00247 s⁻¹ and the kon came out at 249000 M⁻¹ s⁻¹.

In turn, B5 had a Kd of 12 nM, a koff of 0.00502 s⁻¹ and a kon of 417000 M⁻¹ s⁻¹.

Molecule B6 showed a Kd of 110 nM, a koff of 0.00298 s⁻¹ and a kon of 27200 M⁻¹ s⁻¹.

On to B7, for which the Kd turned out to be 0.371 nM, the off-rate constant (koff) stood at 0.000715 s⁻¹ and the kon is 1.93e+06 M⁻¹ s⁻¹.

B8 came in with a Kd of 0.45 nM, a koff of 0.000521 s⁻¹ and a kon of 1.16e+06 M⁻¹ s⁻¹.

As to B9, the dissociation constant (Kd) amounted to 20.5 nM, the koff was determined as 0.000502 s⁻¹ and the kon turned out to be 24400 M⁻¹ s⁻¹.

For the molecule B10, binding was characterised by a dissociation constant (Kd) of 0.359 nM, the koff worked out at 0.000513 s⁻¹ and the kon amounted to 1.43e+06 M⁻¹ s⁻¹.

In the case of B11, the Kd was determined as 15.3 nM, the dissociation rate constant (koff) turned out to be 0.00916 s⁻¹ and the kon was found to be 600000 M⁻¹ s⁻¹.

Regarding B12, binding was put at a Kd of 17.6 nM, the koff was determined as 0.000502 s⁻¹ and the kon came to 28500 M⁻¹ s⁻¹.

On to B13, for which the Kd is 23.1 nM, the koff was determined as 0.000616 s⁻¹ and the kon stood at 26700 M⁻¹ s⁻¹.

The molecule B14 gave a Kd of 10.9 nM, a dissociation rate constant (koff) of 0.000263 s⁻¹ and a kon of 24100 M⁻¹ s⁻¹.

Turning to B15, the affinity, expressed as Kd, was 4.96 nM; the koff is 0.000138 s⁻¹; the kon amounted to 27700 M⁻¹ s⁻¹.

B16 returned a Kd of 0.313 nM, an off-rate (koff) of 0.000331 s⁻¹ and a kon of 1.06e+06 M⁻¹ s⁻¹.

B17 registered a Kd of 1.28 nM, a koff of 0.000413 s⁻¹ and a kon of 323000 M⁻¹ s⁻¹.

In the case of B18, binding was characterised by a dissociation constant (Kd) of 0.597 nM, the koff worked out at 0.000127 s⁻¹ and the kon worked out at 214000 M⁻¹ s⁻¹.

As to B19, the Kd worked out at 62.3 nM, the koff came to 0.00293 s⁻¹ and the kon is 47000 M⁻¹ s⁻¹.

Turning to B20, the affinity, expressed as Kd, was 0.16 nM; the koff is 0.000159 s⁻¹; the kon is 999000 M⁻¹ s⁻¹.

By Kd is commonly meant the concentration at which binding is half-saturated. A word on the koff: it is the rate constant with which the complex falls apart. For orientation: kon means the rate constant with which the complex forms. A lower kon goes with slower complex formation.
